In data set [1] the test system is pro-rvWF. Description: In vitro cleavage of pro-rvWF by r-furin or fusion protein, Western blot analysis. It counts as biochemical, human. The note with it: for in vitro processing of pro-rvWF in mixed supernatants: CHO-rvWF/r-furin and CHO-rvWF supernatants 1:1, 37° C. As to the method: CHO-rvWF, CHO-rvWF/r-furin, CHO-rvWF and CHO (at a ration of 1:1), as well as CHO-rvWF and CHO-rvWF/r-furin (at a ration of 1:1) were mixed accordingly and incubated at 37° C.
Aliquots of the reaction formulations were tested for processed vWF by means of Western blot analysis immediately before incubation and after mixing of the cell culture supernatants, respectively; further aliquots were taken at time intervals of 24 hours each and assayed.
For this, 20 ml of serum-free cell culture supernatant of CHO-rvWF cells, adjusted to 2 mM imidazole, were passed over the column. […] Samples of the cell culture supernatant which were not subjected to a protease treatment served as the controls.
The negative control, an unmanipulated CHO cell culture supernatant (without r-furinΔCys-spacer-10xHis) was processed in an analogous manner on the Ni^2+ -NTA matrix.
Aliquots of the reaction mixtures were taken at the beginning of the test as well as at various points of time and frozen.
The Fractogel EMD® tentacle gel was loaded with Ni^2+ ions according to the manufacturer's instructions and equilibrated with fresh serum-free cell culture medium. Subsequently, the column was loaded with serum-free CHO-r-furinΔCys-spacer-10xHis supernatant. Washing steps were effected by serum-free cell culture medium, containing increasing imidazol concentrations up to 40 mM. Subsequently, the pro-protein substrate was guided over the column as serum-free CHO supernatant.

In data set [2] the test system is Boc-Arg-Val-Arg-Arg-AMC. The data set is described as follows: AMC peptide substrate test (fluorogenic substrate test) of furin or fusion protein activity. Type of data set: biochemical. Particulars: for Intensity of the fluorescent emission at 438 nm: supernatants of permanent CHO cell clones, 2 hours of incubation, 30° C. As to the method:
By the action of furin, AMC (7-amino-4-methyl coumarin) is cleaved from the substrate. […] The fluorescent spectroscopic detection of the furin or fusion protein activity was effected at 30° C. in stirred quartz cells in a test volume of 2 ml. 1.7 ml of 100 mM HEPES buffer (pH 7.4, 1 mM CaCl2 and 1 mM 2-mercaptoethanol) were mixed with 0.1 ml of a substrate solution (final substrate concentration in the test: 0.1 mM) and 0.2 ml of the sample. The fluorescence was excited at a wave length of 380 nm. After 2 hours of incubation, the fluorescent emission was measured at 438 nm (Table 1).
The supernatants of various permanent CHO-r-furinΔTM-His cell clones and, as the controls, of CHO-rvWF/r-furin cells and CHO cells were subjected to the AMC peptide substrate test. The intensity of the fluorescent emission at 438 nm reflects the activity.
The activity of CHO-r-furinΔTM-His cells from cell culture supernatants before their binding to the column matrix, the individual washing fractions as well as the eluate were determined by means of AMC peptide substrate test.
The influence of imidazole on the furin activity was determined.
For this, 1 ml of Ni^2 +-NTA matrix (Quiagen), equilibrated in serum-free cell culture medium was loaded at 4° C. with 10 ml of imidazole-free CHO-r-furinΔCys-spacer-10xHis cell culture supernatant, and, as the negative control, with conditioned medium of non-manipulated CHO cells, respectively. Then the matrix was washed three times at room temperature with serum-free cell culture medium, and subsequently the fluorogenic substrate was contacted at 30° C. with immobilized r-furinΔCys-spacer-10xHis. As the positive control, CHO-r-furinΔCys-spacer-10xHis cell culture supernatant was tested for its ability to react fluorogenic substrate in solution.

In data set [3] the test system is pro-vWF. Description: Co-expression of pro-vWF and r-furin in CHO cells, Western blot of cell culture supernatants. It counts as cell-based, human. The text has this: The expression plasmid for rvWF, phAct-vWF (FIG. 1), was co-transfected with the selection marker plasmid pSV-rdhfr (FIG. 1) in dhfr-deficient CHO cells, the efficiently pro-rvWF-expressing clone CHO-rvWF was selected under selection conditions, and this clone was sub-cloned to stability (Fischer et al., 1994. Febs Lett. 351:345-349). For a further analysis and for rvWF expression and function studies, the cells were at first washed with PBS several times, and subsequently, unless indicated otherwise, incubated in selection medium without serum, with a regular 24 hour medium exchange.
Approximately 40% of the rvWF secreted into the cell supernatant of CHO-rvWF was unprocessed (FIG. 2 II A). To increase the efficiency of the propeptide cleavage, the r-furin expression vector pSV-r-furink in the following was co-transfected with the selection marker plasmid pUCSV-neo into the CHO-rvWF cell clone. Under selection conditions (500 μg G418/ml), clones were identified which express r-furin in addition to rvWF (CHO-rvWF/r-furin; FIGS. 2 I A, B).
The detection of rvWF in the cell culture supernatant was effected by means of Western blot analysis (FIGS. 2 I A and II A). For this, 10 μl of reduced cell culture supernatant were separated by means of SDS-PAGE (Lammli, Nature 227:680-685, 1970), and subsequently the proteins were transferred to nitrocellulose membranes by means of the BioRad Mini Trans-Blot System (BioRad Laboratories, Richmond, Calif., USA). The Protoblot-System from Promega (Madison, Wis., USA) was used to visualize rvWF secreted into the cell culture supernatant. Rabbit anti-vWF serum (Order No. A 082) from Dakopatts (Glostrup, Denmark) was used as the antibody for vWF binding.
The detection of r-furin in the cell culture supernatant was also effected by means of Western blot analysis (FIGS. 2 I B and II B). r-Furin was visualized by using the anti-h-furin murine monoclonal antibody MON 148 (van Duijnhoven et al., Hybridoma 11: 71-86, 1992) and, as the second antibody, anti-murine IgG alkaline phosphatase conjugated goat serum (Sigma A 4656).

Data set [4] concerns single-chain rFX. The data set is described as follows: In vitro cleavage of the propeptide and processing of single-chain rFX, Western blot analysis. It counts as biochemical, human.
Procedure: Aliquots each of the reactions were tested for processed rFX by means of Western blot analysis prior to incubation (t=0) and after various incubation periods (t=2, 4, 6 hours) (FIG. 10). The detection of rFX in the cell culture supernatants was effected by means of anti-human FX antiserum (FIG. 10A) and of a monoclonal antibody specific to the light chain of FX (FIG. 10B).
Data set [5] deals with rFX. The data set is described as follows: FX activity by FX-Coatest-Kit (RVV activation, chromogenic substrate S-2337). It counts as biochemical, human.
Procedure: For this, 50 μl of each supernatant were admixed with 50 μl of FX-deficient human plasma, and according to the protocol of the producer, rFX was reacted to rFXa with snake venom (RVV) in the presence of CaCl2 ; rFXa subsequently hydrolyses the chromogenic substrate (S-2337) and leads to the liberation of the yellow-coloured paranitroaniline. Since the amount of rFXa and the colour intensity are proportional to each other, the amount of rFX activatable to rFXa/ml cell culture supernatant can be determined with the help of a calibration straight line, interpolated from values of the plasma dilution series.

Turning to “CHO-rvWF/r-furin: supernatant or cells of CHO clone co-expressing rvWF and complete recombinant human furin (r-furin), used as source of r-furin”, the “in vitro processing of pro-rvWF in mixed supernatants” value is “completely processed vWF” in data set [1] (48 h and 96 h); “only a slight portion of unprocessed pro-vWF” in data set [1] (after 24 hours). The “Intensity of the fluorescent emission at 438 nm” value in data set [2] was found to be 444. For the same molecule, the “processing of pro-vWF in co-expressing cells” value is on record as “significant amounts of pro-rvWF” in data set [3] (medium exchange every 8 hours, serum-free); “only the completely processed rvWF” in data set [3] (serum-free 24 hour cell culture supernatants); “completely processed” in data set [3] (serum-free 24 hour cell culture supernatants, listed as CHO rvWF/r-furin).

B1: CHO-r-furinΔCys-spacer-His: r-furinΔCys (to amino acid 585) with spacer Ala-Ala-Gly-Gly-Ala-Ala and six histidine residues; SEQ.ID.NO. 21 (protein)
chain: MELRPWLLWVVAATGTLVLLAADAQGQKVFTNTWAVRIPGGPAVANSVARKHGFLNLGQIFGDYYHFWHRGVTKRSLSPHRPRHSRLQREPQVQWLEQQVAKRRTKRDVYQEPTDPKFPQQWYLSGVTQRDLNVKAAWAQGYTGHGIVVSILDDGIEKNHPDLAGNYDPGASFDVNDQDPDPQPRYTQMNDNRHGTRCAGEVAAVANNGVCGVGVAYNARIGGVRMLDGEVTDAVEARSLGLNPNHIHIYSASWGPEDDGKTVDGPARLAEEAFFRGVSQGRGGLGSIFVWASGNGGREHDSCNCDGYTNSIYTLSISSATQFGNVPWYSEACSSTLATTYSSGNQNEKQIVTTDLRQKCTESHTGTSASAPLAAGIIALTLEANKNLTWRDMQHLVVQTSKPAHLNANDWATNGVGRKVSHSYGYGLLDAGAMVALAQNWTTVAPQRKCIIDILTEPKDIGKRLEVRKTVTACLGEPNHITRLEHAQARLTLSYNRRGDLAIHLVSPMGTRSTLLAARPHDYSADGFNDWAFMTTHSWDEDPSGEWVLEIENTSEANNYGTLTKFTLVLYGTAPEGLPVPPESSAAGGAAHHHHHH
modifications: spacer and His6 tag
notes: r-furinΔCys (to amino acid 585) with spacer Ala-Ala-Gly-Gly-Ala-Ala and six histidine residues; 21
For the molecule B1, in data set [4], the “processing of rFX” value is “demonstrated”.

B2: r-furinΔTM-His: furin with transmembrane and cytoplasmatic part (amino acids 708 to 794) deleted, six histidine residues appended after amino acid 707; SEQ.ID.NO. 9 (protein)
chain: MELRPWLLWVVAATGTLVLLAADAQGQKVFTNTWAVRIPGGPAVANSVARKHGFLNLGQIFGDYYHFWHRGVTKRSLSPHRPRHSRLQREPQVQWLEQQVAKRRTKRDVYQEPTDPKFPQQWYLSGVTQRDLNVKAAWAQGYTGHGIVVSILDDGIEKNHPDLAGNYDPGASFDVNDQDPDPQPRYTQMNDNRHGTRCAGEVAAVANNGVCGVGVAYNARIGGVRMLDGEVTDAVEARSLGLNPNHIHIYSASWGPEDDGKTVDGPARLAEEAFFRGVSQGRGGLGSIFVWASGNGGREHDSCNCDGYTNSIYTLSISSATQFGNVPWYSEACSSTLATTYSSGNQNEKQIVTTDLRQKCTESHTGTSASAPLAAGIIALTLEANKNLTWRDMQHLVVQTSKPAHLNANDWATNGVGRKVSHSYGYGLLDAGAMVALAQNWTTVAPQRKCIIDILTEPKDIGKRLEVRKTVTACLGEPNHITRLEHAQARLTLSYNRRGDLAIHLVSPMGTRSTLLAARPHDYSADGFNDWAFMTTHSWDEDPSGEWVLEIENTSEANNYGTLTKFTLVLYGTAPEGLPVPPESSGCKTLTSSQACVVCEEGFSLHQKSCVQHCPPGFAPQVLDTHYSTENDVETIRASVCAPCHASCATCQGPALTDCLSCPSHASLDPVEQTCSRQSQSSRESPPQQQPPRLPPEVEAGQRLRAGHHHHHH
modifications: His6 tag
B2 gave an Activity in data set [5] (t = 6 hours, supernatants 1:1, 37° C.) of 344 mU/ml. Besides, the “% Functional FX” value in data set [5] (t = 6 hours, from activity and ELISA antigen) is reported as 43%. Further, the “unspecific proteolytic activity (OD values) in mixture of CHO and CHO-r-furinΔTM-His supernatants” value in data set [5] (without rFX, % of the proteolytic activity) was “less than 7%”. Besides, in data set [1] (Ni2+ column, CHO-rvWF supernatant with 2 mM imidazole passed over, column eluate), the “processing of rpro-vWF on immobilized fusion protein” value is “only completely processed vWF”. Also, the “INTENSITY (AMC peptide substrate test)” value in data set [2] (1st washing fraction of Ni2+-NTA column) was determined as 340; in data set [2] (2nd washing fraction of Ni2+-NTA column), 280; in data set [2] (3rd washing fraction of Ni2+-NTA column) it was 121; in data set [2] (eluate from Ni2+-NTA matrix (buffer A containing 200 mM imidazole)), 2820; in data set [2] (roller supernatant before binding to the Ni2+-NTA matrix), 2664. In data set [2], the “Intensity of the fluorescent emission at 438 nm” value came to 2524.

Source of the values: patent US6210929A, “Fusion protein comprising a furin derivative or a derivative of a furin analogue and a heterologous sequence” (Baxter Aktiengesellschaft, priority 1995, dated 2001).
